Laboratory results from patent US20120172315A1 (CENTRE NATIONAL DE LA RECHERCHE SCIENTIFIQUE, published 2012).

Target: eIF4E in B lymphocytes from patients suffering from CLL (human (patients' cells);  for …, UniProt P06730 2-217, limits assumed)
Assay: cell-based or functional assay

Sequence of eIF4E in B lymphocytes from patients suffering from CLL (P06730 2-217 limits assumed): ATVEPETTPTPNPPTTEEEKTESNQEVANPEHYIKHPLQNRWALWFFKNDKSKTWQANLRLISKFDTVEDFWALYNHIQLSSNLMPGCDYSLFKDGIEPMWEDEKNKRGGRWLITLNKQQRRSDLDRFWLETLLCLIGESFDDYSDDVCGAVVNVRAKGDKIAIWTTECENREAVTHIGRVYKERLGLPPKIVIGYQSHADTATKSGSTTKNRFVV

What does the source list for RRKYGRDFLLRFRYIRS [A1 WT IRS peptide]?
IC50, defined as the concentration of peptide capable of causing the death of 50% of the cells after 24 H (CLL cells): ~28 µM; IC50, defined as the concentration of peptide capable of causing the death of 50% of the cells after 24 H (CLL cells, second patient): 24 µM
